Experimental data from article PMC7192624, “A Snu114–GTP–Prp8 module forms a relay station for efficient splicing in yeast” (Nucleic Acids Research, 2020).
Where a chain is given by its changes, count along the chain named.

Assays:
Experiment in all cases: SEC; two proteins co-produced in insect cells, both Strep-tagged; StrepTactin capture, then SEC on Superdex S200 in 10 mM TRIS-HCl pH 8.0, 300 mM NaCl, 2 mM DTT; co-purification of wt and variant complexes
Details in all cases: both partners purified
Snu114^72-1008 S190A = target: T1, Snu114^72-1008 S190A (yeast, UniProt P36048 72-1008, S190A)
T1 construct: Insoluble when produced alone; also called Snu114^S190A; source: insect cells, co-produced with Prp8^SBR; complex purified; not shown: Strep tag (from the vector pIDS-C-Strep), C-terminal, kept
T1 sequence (looked up): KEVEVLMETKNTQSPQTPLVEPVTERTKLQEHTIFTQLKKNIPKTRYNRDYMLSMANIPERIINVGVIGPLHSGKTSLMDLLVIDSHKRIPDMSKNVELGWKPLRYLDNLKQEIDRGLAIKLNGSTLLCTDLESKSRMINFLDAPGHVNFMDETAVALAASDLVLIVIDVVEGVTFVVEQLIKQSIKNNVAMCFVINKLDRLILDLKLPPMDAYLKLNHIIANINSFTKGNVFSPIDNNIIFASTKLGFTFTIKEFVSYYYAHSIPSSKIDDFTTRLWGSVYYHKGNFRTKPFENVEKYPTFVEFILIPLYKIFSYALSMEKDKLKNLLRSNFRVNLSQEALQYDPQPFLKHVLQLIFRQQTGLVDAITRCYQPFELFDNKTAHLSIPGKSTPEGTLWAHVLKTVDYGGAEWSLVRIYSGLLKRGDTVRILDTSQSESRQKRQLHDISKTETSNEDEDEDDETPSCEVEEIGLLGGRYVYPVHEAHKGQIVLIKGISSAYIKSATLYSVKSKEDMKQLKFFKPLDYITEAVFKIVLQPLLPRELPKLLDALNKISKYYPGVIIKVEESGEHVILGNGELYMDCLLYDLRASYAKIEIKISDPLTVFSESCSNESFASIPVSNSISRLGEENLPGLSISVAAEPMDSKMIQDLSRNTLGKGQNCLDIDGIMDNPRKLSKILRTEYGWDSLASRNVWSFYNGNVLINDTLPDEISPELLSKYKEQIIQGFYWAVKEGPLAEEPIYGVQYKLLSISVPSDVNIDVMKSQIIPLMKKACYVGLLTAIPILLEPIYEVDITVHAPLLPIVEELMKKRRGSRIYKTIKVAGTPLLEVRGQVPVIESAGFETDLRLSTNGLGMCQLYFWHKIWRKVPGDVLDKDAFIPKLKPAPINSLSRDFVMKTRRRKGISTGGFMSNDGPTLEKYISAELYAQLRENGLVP

[1] = target: T2, Snu114^72-1008 (yeast Snu114 lacking the acidic N-terminal region) (yeast, UniProt P36048 72-1008)
T2 construct: synthetic gene; Co-purifies with endogenous GTP; source: insect cells (MultiBac baculovirus); co-produced with Prp8 constructs or alone; purified (StrepTactin, SEC); not shown: Strep tag (from the vector pIDS-C-Strep), C-terminal, kept
T2 sequence (looked up): T1 sequence (looked up) with A119S

Snu114^72-1008 K146A = target: T3, Snu114^72-1008 K146A (yeast, UniProt P36048 72-1008, K146A)
T3 construct: Insoluble when produced alone; also called Snu114^K146A; source: insect cells, co-produced with Prp8^SBR; complex purified; not shown: Strep tag (from the vector pIDS-C-Strep), C-terminal, kept
T3 sequence (looked up): T1 sequence (looked up) with K75A, A119S

Measured: binding result

B1: Prp8^SBR (Prp8 Snu114-binding region, Prp8 residues 315-555), recombinant (domain or fragment, yeast, UniProt P33334 315-555, looked up)
chain: STPLRDEVTDKNYYYLFDKKSFFNGKALNNAIPGGPKFEPLYPREEEEDYNEFNSIDRVIFRVPIRSEYKVAFPHLYNSRPRSVRIPWYNNPVSCIIQNDEEYDTPALFFDPSLNPIPHFIDNNSSLNVSNTKENGDFTLPEDFAPLLAEEEELILPNTKDAMSLYHSPFPFNRTKGKMVRAQDVALAKKWFLQHPDEEYPVKVKVSYQKLLKNYVLNELHPTLPTNHNKTKLLKSLKNTK
notes: Could not be produced alone; In the crystal residues 367-533 were modelled (416-419 and 435-449 without density); also called wt Prp8^SBR; Prp8^SBP; source: complex purified (StrepTactin, SEC); not shown: Strep tag (from the vector pFL-N-Strep), N-terminal, kept
binds: all assays above
